Assay results reported in US20230277625A1 (SIMCHA IL 18, published 2023).
Changes are numbered by the printed parent chain.

B1: SEQ ID NO: 60 (murine DR-IL-18 variant mCS1) (ligand)
chain: NFGRLHCTTAVIRNINDQVLFVDKRQPVFEDMTDIDQSASEPQTRLIIYGYADSRVRGKAVTLSVKDSKMSTLSCKNKIISFEEMDPPENIDDIQSDLIFFQKRVPGHNKMEFESSLYEGHFLACQKEDDAFKLILKKKDENGDKSVMFTLTNLHQS
notes: Engineered variant
B2: SEQ ID NO: 67 (murine DR-IL-18 variant mB1) (ligand)
chain: B1 chain with N1H, R55D, V56A, G58A, R104S, L151V
notes: Engineered variant
B3: SEQ ID NO: 64 (murine DR-IL-18 variant mE8) (ligand)
chain: B1 chain with G50V, A52T, S54G, V56R, R104K, N109D
notes: Engineered variant

Key:
[1] = target: T1, Mouse IL-18BP (amino acids 31-194), biotinylated (mouse, UniProt Q9Z0M9 29-193, biotin on the AviTag (BirA ligase)); test: SPR; KD ratio relative to WT IL-18; SPR; ratio normalized to WT
T1 construct: also called mIL-18BP
T1 sequence: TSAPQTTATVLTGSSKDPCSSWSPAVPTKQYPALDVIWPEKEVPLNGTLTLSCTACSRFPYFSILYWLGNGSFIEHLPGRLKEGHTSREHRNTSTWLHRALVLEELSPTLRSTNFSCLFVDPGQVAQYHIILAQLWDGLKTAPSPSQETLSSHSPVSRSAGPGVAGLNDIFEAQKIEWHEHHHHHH
How it was run: (§1)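 Biotinylated IL-18Rα or IL-18BP captured on a biotin CAP chip (Rmax ~50 RU or ~10 RU respectively), with serial dilutions of IL-18 variants as analyte. Run at 25° C in HBS-P+ (10 mM HEPES pH 7.4, 150 mM NaCl, 0.005% P20); guanidine/NaOH regeneration. KD from 1:1 Langmuir fit.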

[2] = target: T2, Mouse IL-18Rα ectodomain (amino acids 19-329), biotinylated (mouse, UniProt Q61098 19-329, biotin on the AviTag (BirA ligase)); test: SPR (Biacore T100), receptor captured via biotin, IL-18 as analyte
T2 construct: range 19-329; Secreted from Expi293 cells (H7 signal peptide removed); also called mIL-18Rα; mIL18Ra
T2 sequence: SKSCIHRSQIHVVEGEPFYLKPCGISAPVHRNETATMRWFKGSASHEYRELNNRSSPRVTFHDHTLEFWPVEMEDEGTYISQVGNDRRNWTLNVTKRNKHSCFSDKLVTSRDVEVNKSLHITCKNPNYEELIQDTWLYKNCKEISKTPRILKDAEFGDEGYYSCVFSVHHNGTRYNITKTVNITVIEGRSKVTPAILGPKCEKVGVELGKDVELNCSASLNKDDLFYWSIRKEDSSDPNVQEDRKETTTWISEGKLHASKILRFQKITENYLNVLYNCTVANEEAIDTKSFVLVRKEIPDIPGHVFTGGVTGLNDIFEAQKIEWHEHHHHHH
How it was run: as §1

[3] = target: T1, Mouse IL-18BP (amino acids 31-194), …; test: SPR; KD for IL-18BP over KD for IL-18Rα; SPR; ratio of measured KDs
Method: (§2) Experiments were conducted using a Biacore T100 and carried out at 25° C. Biotinylated IL-18Rα or IL-18BP were immobilized onto a Biacore biotin capture chip (Series S CAP sensor chip, GE Healthcare) to yield an Rmax of ˜50 RU (IL-18Rα) or ˜10 RU (IL-18BP). Measurements were made with serial dilutions of the IL-18 variants in HEPES buffered Saline-P+buffer (10 mM HEPES pH 7.4, 150 mM NaCl, 0.005% surfactant P20). The surface was regenerated by three 60-sec injections of regeneration buffer (3/4 (v/v) 8M guanidine hydrochloride with 1/4 (v/v) 1M sodium hydroxide). Experiments were performed in multiple channels simultaneously for increased observations. All data were analyzed with the Biacore T100 evaluation software version 2.0 with a 1:1 Langmuir binding model.

[4] = target: T1, Mouse IL-18BP (amino acids 31-194), …; test: on-yeast binding isotherms; 10 µM used for NBD; on-yeast isotherm; ratio is a bound reckoned from 10 µM put in for NBD
Method: (§3) Individual colonies of IL-18 yeast were grown overnight at 30° C. in SDCAA liquid media and induced in SGCAA liquid media for 1 day at 20° C. IL-18 display levels on yeast were verified by flow cytometry using an anti-cMyc tag antibody (anti-myc-PE; Cell Signaling Technologies). Receptor staining with biotinylated IL-18Rα (with or without IL-18R β) or biotinylated IL-18BP was performed in PBS supplemented with 0.5% BSA and 2 mM EDTA (PBE) on ice. All analysis was performed on a Sony SA3800 flow cytometer.

[5] = target: T1, Mouse IL-18BP (amino acids 31-194), …; test: SPR (Biacore T100), IL-18BP captured via biotin, IL-18 as analyte; SPR; weak binding, 3.8 µM
Method: as §2

[6] = target: T1, Mouse IL-18BP (amino acids 31-194), …; test: on-yeast binding isotherms; KD ratio relative to WT IL-18; on-yeast isotherm; normalized ratio from 10 µM put in for NBD
Method: as §3

[7] = target: T1, Mouse IL-18BP (amino acids 31-194), …; test: yeast binding isotherms and SPR; members per FIG. 11A legend
[8] = target: T2, Mouse IL-18Rα ectodomain (amino acids …); test: on-yeast binding isotherm (flow cytometry)
How it was run: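 Yeast displaying IL-18 variants were grown at 30 °C, then induced 1 day at 20 °C, with display checked by anti-myc-PE. Cells were stained on ice with biotinylated IL-18Rα (± IL-18Rβ) or biotinylated IL-18BP in PBS/0.5% BSA/2 mM EDTA. Binding was read by flow cytometry.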

[9] = target: T1, Mouse IL-18BP (amino acids 31-194), …; test: SPR (Biacore T100), IL-18BP captured via biotin, IL-18 as analyte; SPR; very weak binding, about 15 µM
Method: as §2

[10] = target: T1, Mouse IL-18BP (amino acids 31-194), …; test: SPR; 30 µM used for NBD; SPR; ratio is a bound reckoned from 30 µM put in for NBD
Method: as §2

[11] = target: T1, Mouse IL-18BP (amino acids 31-194), …; test: SPR; KD ratio relative to WT IL-18; SPR; normalized ratio from 30 µM put in for NBD
Method: as §2

| Binder | Dissociation Constant Ratio normalized to WT IL-18 [1] | Kd [2] | KD ratio IL-18BP/IL-18Rα [3] | KD ratio IL-18BP/IL-18Rα [4] | Kd [5] | Dissociation Constant Ratio normalized to WT IL-18 [6] | Kd [7] | Kd [8] | Kd [9] | KD ratio IL-18BP/IL-18Rα [10] | Dissociation Constant Ratio normalized to WT IL-18 [11] |
| --- | --- | --- | --- | --- | --- | --- | --- | --- | --- | --- | --- |
| B1 | 3.84e+06 | 0.54 nM | 7040 | > 935 | 3800 nM | > 4960 | > 1000 nM | 10.7 nM |  |  |  |
| B2 | 1.15e+07 | 0.7 nM | 21000 | > 559 |  | > 2960 | > 1000 nM | 17.9 nM | 14700 nM |  |  |
| B3 |  | 1.69 nM |  | > 238 |  | > 1260 |  | 42 nM |  | > 17800 | > 9.68e+06 |
